Reference: patent US20240400635A1 (Novo Nordisk, published 2024)

Assays:
human GLP-1 receptor = human GLP-1 receptor (human, UniProt P43220 24-463); test: cell-based or functional assay
FGF receptor/BKL complex = FGF receptor/BKL complex (human, UniProt Q86Z14 1-1044); test: cell-based or functional assay
FGF receptor/BKL complex, sequence (Q86Z14 whole entry, one chain of several): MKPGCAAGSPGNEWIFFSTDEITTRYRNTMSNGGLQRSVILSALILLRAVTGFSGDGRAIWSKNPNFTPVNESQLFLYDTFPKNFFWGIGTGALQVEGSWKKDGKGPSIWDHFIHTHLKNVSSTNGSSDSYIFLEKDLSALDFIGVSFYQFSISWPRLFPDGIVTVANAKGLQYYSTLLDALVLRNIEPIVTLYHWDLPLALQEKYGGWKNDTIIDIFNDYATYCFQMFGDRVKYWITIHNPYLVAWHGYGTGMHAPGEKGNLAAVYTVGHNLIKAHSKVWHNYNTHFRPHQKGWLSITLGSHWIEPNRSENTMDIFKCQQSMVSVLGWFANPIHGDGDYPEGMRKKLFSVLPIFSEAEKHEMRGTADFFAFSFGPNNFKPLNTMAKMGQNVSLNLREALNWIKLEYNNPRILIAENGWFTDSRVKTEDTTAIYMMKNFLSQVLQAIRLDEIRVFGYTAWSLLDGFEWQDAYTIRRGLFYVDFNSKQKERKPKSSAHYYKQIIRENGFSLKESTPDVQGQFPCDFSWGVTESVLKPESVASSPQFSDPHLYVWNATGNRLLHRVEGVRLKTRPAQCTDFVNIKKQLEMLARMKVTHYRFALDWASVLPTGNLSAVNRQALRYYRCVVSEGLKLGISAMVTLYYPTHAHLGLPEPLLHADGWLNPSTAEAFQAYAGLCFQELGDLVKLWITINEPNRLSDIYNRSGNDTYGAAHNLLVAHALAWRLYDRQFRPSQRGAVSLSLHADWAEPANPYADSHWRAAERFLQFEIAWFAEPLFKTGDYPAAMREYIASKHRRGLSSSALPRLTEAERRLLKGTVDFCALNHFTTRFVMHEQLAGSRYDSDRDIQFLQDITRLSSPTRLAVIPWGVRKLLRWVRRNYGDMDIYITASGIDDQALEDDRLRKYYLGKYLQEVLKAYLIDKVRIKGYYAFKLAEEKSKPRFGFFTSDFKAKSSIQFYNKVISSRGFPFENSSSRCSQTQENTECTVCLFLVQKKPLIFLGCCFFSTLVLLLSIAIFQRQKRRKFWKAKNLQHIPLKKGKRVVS

Row | GLP-1 receptor potency [EC50] pM 0% HSA (human GLP-1 receptor) [pM] | GLP-1 receptor potency [EC50] pM 1% HSA (human GLP-1 receptor) [pM] | FGF1 receptor potency [EC50] nM 0.1% HSA (FGF receptor/BKL complex) [nM] | FGF21 receptor potency [EC50] nM 0% HSA (FGF receptor/BKL complex) [nM] | Binder
1 | 9.8 | 203 | 1.42 | 0.67 | {S27-[(28S)-(28,46-Dicarboxy-2,7,16,25,30-pentaoxo-9,12,18,21-tetraoxa-3,6,15,24,29-pentaazahexatetracontan-1-yl)]-[Gly8,36,Glu22,Cys27]-GLP-1(human)-(7-37)-pep … (ligand, Cys27 of the GLP-1 part (GLP-1(7-37) numbering; residue 21 of the chain) S-alkylated with (28S)-(28,46-Dicarboxy-2,7,16,25,30-pentaoxo-9,12,18,21-tetraoxa-3,6,15,24,29-pentaazahexatetracontan-1-yl) (substituent Chem. 7)) HGEGTFTSDVSSYLEEQAAKCFIAWLVKGGGGAQPGAQPGAQPGAQPGAQPGAQPGAQPGAQPGAQPGAQPGAQPGAQPGAQPGAQPGAQPGAQPGAQPGAQPGAQPGAQPGAQPGAQPGAQPGAQPGAQPGAQPGAQPGAQPGAQPGAQPGAQPGAQPAHPIPDSSPLLQFGGQVRQRYLYTDDAQQTEAHLEIREDGTVGGAADQSPESLLQLKALKPGVIQILGVKTSRFLCQRPDGALYGSLHFDPEACSFRELLLEDGYNVYQSEAHGLPLHLPGQKSPHRDPAPRGPARFLPLPGLPPALPEPPGILAPQPPDVGSSDPLSLVGGSQGRSPSYES
2 | 92.3 | 394 | 1.36 | 0.19 | [8G, 22E, 36G]GLP-1(7-37)-(GAQP)x2, … (ligand, Cys of the spacer (residue 40 of the chain) S-alkylated with substituent Chem. 7) HGEGTFTSDVSSYLEEQAAKEFIAWLVKGGGGAQPGAQPCGAQPGAQPAHPIPDSSPLLQFGGQVRQRYLYTDDAQQTEAHLEIREDGTVGGAADQSPESLLQLKALKPGVIQILGVKTSRFLCQRPDGALYGSLHFDPEACSFRELLLEDGYNVYQSEAHGLPLHLPGQKSPHRDPAPRGPARFLPLPGLPPALPEPPGILAPQPPDVGSSDPLSLVGGSQGRSPSYAS

Further lines, the binder ahead of its results:

Row | Binder | GLP-1 receptor potency [EC50] pM 0% HSA (human GLP-1 receptor) [pM] | GLP-1 receptor potency [EC50] pM 1% HSA (human GLP-1 receptor) [pM] | FGF1 receptor potency [EC50] nM 0.1% HSA (FGF receptor/BKL complex) [nM] | FGF21 receptor potency [EC50] nM 0% HSA (FGF receptor/BKL complex) [nM]
3 | S{Beta-27}-[2-[2-[[2-[2-[2-[[2-[2-[2-[[(4S)-4-carboxy-4-(17-carboxyheptadecanoyl-amino)butanoyl]amino]ethoxy]ethoxy]acetyl]amino]ethoxy]ethoxy]acetyl]amino]-eth … (ligand, Cys27 of the GLP-1 part (GLP-1(7-37) numbering; residue 21 of the chain) S-alkylated with substituent Chem. 7) HGEGTFTSDVSSYLEEQAAKCFIAWLVKGGGGAQPGAQPGAQPGAQPGAQPGAQPGAQPGAQPGAQPGAQPGAQPGAQPGAQPGAQPGAQPGAQPAHPIPDSSPLLQFGGQVRQRYLYTDDAQQTEAHLEIREDGTVGGAADQSPESLLQLKALKPGVIQILGVKTSRFLCQRPDGALYGSLHFDPEACSFRELLLEDGYNVYQSEAHGLPLHLPGQKSPHRDPAPRGPARFLPLPGLPPALPEPPGILAPQPPDVGSSDPLSLVGGSQGRSPSYES | 9.5 | 103 | 1.14 | 0.47
4 | S{Beta-27}-[2-[2-[[2-[2-[2-[[2-[2-[2-[[(4S)-4-carboxy-4-(17-carboxyheptadecanoyl-amino)butanoyl]amino]ethoxy]ethoxy]acetyl]amino]ethoxy]ethoxy]acetyl]amino]-eth … (ligand, Cys27 of the GLP-1 part (GLP-1(7-37) numbering; residue 21 of the chain) S-alkylated with substituent Chem. 7) HGEGTFTSDVSSYLEEQAAKCFIAWLVKGGGGAQPGAQPGAQPGAQPGAQPGAQPGAQPGAQPAHPIPDSSPLLQFGGQVRQRYLYTDDAQQTEAHLEIREDGTVGGAADQSPESLLQLKALKPGVIQILGVKTSRFLCQRPDGALYGSLHFDPEACSFRELLLEDGYNVYQSEAHGLPLHLPGQKSPHRDPAPRGPARFLPLPGLPPALPEPPGILAPQPPDVGSSDPLSLVGGSQGRSPSYAS | 15.7 | 106 | 0.45 | 0.24
5 | S{Beta-27}-[2-[2-[[2-[2-[2-[[2-[2-[2-[[(4S)-4-carboxy-4-(17-carboxyheptadecanoyl-amino)butanoyl]amino]ethoxy]ethoxy]acetyl]amino]ethoxy]ethoxy]acetyl]amino]-eth … (ligand, Cys27 of the GLP-1 part (GLP-1(7-37) numbering; residue 21 of the chain) S-alkylated with substituent Chem. 7) HGEGTFTSDVSSYLEEQAAKCFIAWLVKGGGGAQPGAQPGAQPGAQPGAQPGAQPGAQPGAQPAHPIPDSSPLLQFGGQVRQRYLYTDDAQQTEAHLEIREDGTVGGAADQSPESLLQLKALKPGVIQILGVKTSRFLCQRPDGALYGSLHFDPEACSFRELLLEDGYNVYQSEAHGLPLHLPGQKSPHRDPAPRGPARFLPLPGLPPALPEPPGILAPQPPDVGSSDPLSLVGGSQGRSPSYES | 9.8 | 66.6 | 0.87 | 0.41
6 | [8G, 22E, 26R, 36G]GLP-1(7-37)-(GAQP)x2, … (ligand, Cys of the spacer (residue 40 of the chain) and Cys180 of the FGF21 part (FGF21(1-181) numbering; residue 229 of the chain) each S-alkylated with substituent Chem. 7) HGEGTFTSDVSSYLEEQAAREFIAWLVKGGGGAQPGAQPCGAQPGAQPAHPIPDSSPLLQFGGQVRQRYLYTDDAQQTEAHLEIREDGTVGGAADQSPESLLQLKALKPGVIQILGVKTSRFLCQRPDGALYGSLHFDPEACSFRELLLEDGYNVYQSEAHGLPLHLPGQKSPHRDPAPRGPARFLPLPGLPPALPEPPGILAPQPPDVGSSDPLSLVGPSQGRSPSYCSHGEGTFTSDVSSYLEEQAAREFIAWLVKGGGGAQPGAQPCGAQPGAQPAHPIPDSSPLLQFGGQVRQRYLYTDDAQQTEAHLEIREDGTVGGAADQSPESLLQLKALKPGVIQILGVKTSRFLCQRPDGALYGSLHFDPEACSFRELLLEDGYNVYQSEAHGLPLHLPGQKSPHRDPAPRGPARFLPLPGLPPALPEPPGILAPQPPDVGSSDPLSLVGPSQGRSPSYCS | 29.5 | 450 | 18 | 0.22
7 | [8G, 22E, 26R, 36G]GLP-1(7-37)-(GAQP)x2, … (ligand, Cys of the spacer (residue 40 of the chain) S-alkylated with substituent Chem. 7) HGEGTFTSDVSSYLEEQAAREFIAWLVKGGGGAQPGAQPCGAQPAHPIPDSSPLLQFGGQVRQRYLYTDDAQQTEAHLEIREDGTVGGAADQSPESLLQLKALKPGVIQILGVKTSRFLCQRPDGALYGSLHFDPEACSFRELLLEDGYNVYQSEAHGLPLHLPGQKSPHRDPAPRGPARFLPLPGLPPALPEPPGILAPQPPDVGSSDPLSLVGGSQGRSPSYAS | 28.2 | 222 | 0.57 | 0.32
